According to US20260078171A1:

Key:
[1] = molecular target: SARS-CoV-2 (SARS-CoV-2)
[2] = molecular target: LYRa11 (bat coronavirus LYRa11)
[3] = molecular target: SARS-CoV-1 (SARS-CoV)
[4] = molecular target: Rs4231 (bat coronavirus Rs4231)
[5] = molecular target: WIV1 (bat coronavirus WIV1)
[6] = molecular target: Civet 007-2004 (civet SARS-related coronavirus 007-2004)
[7] = molecular target: A021 (SARS-related coronavirus A021)
[8] = molecular target: GD-Pangolin (GD-Pangolin coronavirus)
[9] = molecular target: Frankfurt 1 (SARS-CoV isolate Frankfurt 1)
[10] = molecular target: CS24 (SARS-related coronavirus CS24)
[11] = molecular target: SHC014 (bat coronavirus Rs SHC014)
[12] = molecular target: RaTG13 (bat coronavirus RaTG13)

Chain of VYD222 (antibody) (VH): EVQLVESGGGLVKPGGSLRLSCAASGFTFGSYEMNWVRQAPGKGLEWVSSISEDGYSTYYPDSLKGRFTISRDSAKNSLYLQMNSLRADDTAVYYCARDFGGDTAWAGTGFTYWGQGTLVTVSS
Chain of VYD222 (antibody) (VL): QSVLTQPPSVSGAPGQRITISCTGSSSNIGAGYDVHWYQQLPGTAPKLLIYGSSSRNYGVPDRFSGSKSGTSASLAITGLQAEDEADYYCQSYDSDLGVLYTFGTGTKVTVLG
Chain of ADI-58125 (antibody) (VH): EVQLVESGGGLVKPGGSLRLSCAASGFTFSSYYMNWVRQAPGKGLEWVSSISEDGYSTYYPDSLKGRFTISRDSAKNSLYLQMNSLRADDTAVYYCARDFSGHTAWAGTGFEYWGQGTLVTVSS
Chain of ADI-58125 (antibody) (VL): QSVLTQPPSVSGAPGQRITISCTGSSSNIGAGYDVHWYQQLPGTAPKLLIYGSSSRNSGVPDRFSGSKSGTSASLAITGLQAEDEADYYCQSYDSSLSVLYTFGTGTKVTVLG
Chain of VYD224 (antibody) (VH): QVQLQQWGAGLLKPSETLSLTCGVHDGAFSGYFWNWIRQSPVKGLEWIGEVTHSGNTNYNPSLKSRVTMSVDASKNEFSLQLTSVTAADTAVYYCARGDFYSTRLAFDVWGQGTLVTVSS
Chain of VYD224 (antibody) (VL): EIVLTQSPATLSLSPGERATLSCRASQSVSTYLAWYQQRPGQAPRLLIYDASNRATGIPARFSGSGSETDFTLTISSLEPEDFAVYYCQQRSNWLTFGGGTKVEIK

Substance | KD App [1] [nM] | KD App [2] [nM] | KD App [3] [nM] | KD App [4] [nM] | KD App [5] [nM] | KD App [6] [nM] | KD App [7] [nM] | KD App [8] [nM] | KD App [9] [nM] | KD App [10] [nM] | KD App [11] [nM] | KD App [12] [nM]
ADI-58125 (antibody) | 3.2 | 0.96 | 1.02 | 1.53 | 1.32 | 0.57 | 1.07 | 1.03 | 1.83 | 0.79 | 2.72 | 
VYD222 (antibody) | 0.54 | 0.67 | 0.44 | 0.49 | 0.97 | 0.23 | 0.24 | 0.15 | 0.9 | 0.45 | 0.74 | 
VYD224 (antibody) | 1.68 | 0.32 | 15.6 | 10.8 | 0.33 | 9.13 | 13.5 | 1.63 | 0.93 | 15.9 | 12.3 | 0.87
